Data set [1] deals with T1, SUVH5 SRA domain (Arabidopsis, UniProt O82175 362-528).
T1 sequence: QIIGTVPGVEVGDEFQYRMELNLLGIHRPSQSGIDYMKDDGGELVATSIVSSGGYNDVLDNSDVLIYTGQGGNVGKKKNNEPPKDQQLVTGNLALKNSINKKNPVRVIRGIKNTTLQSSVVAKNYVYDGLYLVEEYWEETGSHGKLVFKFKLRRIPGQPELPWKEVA
As to the kind of experiment: X-ray crystal structure (2.6 A); 2:1 complex, dual 5hmC flip-out; ITC: 40 mM Tris-HCl pH 7.5, 50 mM NaCl, 2 mM b-mercaptoethanol, 25 C; FP: 20 mM Tris-HCl pH 7.5, 50 mM NaCl, 1 mM DTT, 20 C; EMSA: 25 mM Tris-HCl pH 7.5, 5% glycerol, 60 mM NaCl, 10 mM MgCl2, 0.4 mg/mL BSA, 2 mM DTT. To be noted: protein: recombinant; tags: His6-SUMO, cleaved with Ulp1; chain copies: 2; self-complementary, 2 copies of strand; 3' T overhang.

In data set [2] the target is T1, SUVH5 SRA domain. As to the kind of experiment: ITC; N = 0.52; ITC: 40 mM Tris-HCl pH 7.5, 50 mM NaCl, 2 mM b-mercaptoethanol, 25 C; FP: 20 mM Tris-HCl pH 7.5, 50 mM NaCl, 1 mM DTT, 20 C; EMSA: 25 mM Tris-HCl pH 7.5, 5% glycerol, 60 mM NaCl, 10 mM MgCl2, 0.4 mg/mL BSA, 2 mM DTT. To be noted: protein: recombinant; tags: His6-SUMO, cleaved with Ulp1; chain copies: 2; self-complementary, 2 copies of strand.

The target of a further data set is T2, UHRF1 SRA domain (mammalian? (species ), UniProt Q96T88-2 427-630).
T2 sequence: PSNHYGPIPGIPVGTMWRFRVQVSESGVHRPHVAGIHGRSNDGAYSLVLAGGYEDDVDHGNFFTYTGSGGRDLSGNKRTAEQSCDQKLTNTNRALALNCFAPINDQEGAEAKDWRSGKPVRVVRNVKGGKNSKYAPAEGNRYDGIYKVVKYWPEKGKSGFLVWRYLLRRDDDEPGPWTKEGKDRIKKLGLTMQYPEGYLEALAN
Kind of data set: fluorescence polarization; 20 C; ITC: 40 mM Tris-HCl pH 7.5, 50 mM NaCl, 2 mM b-mercaptoethanol, 25 C; FP: 20 mM Tris-HCl pH 7.5, 50 mM NaCl, 1 mM DTT, 20 C; EMSA: 25 mM Tris-HCl pH 7.5, 5% glycerol, 60 mM NaCl, 10 mM MgCl2, 0.4 mg/mL BSA, 2 mM DTT. Particulars: protein: recombinant; tags: His6-SUMO, cleaved with Ulp1; label: 5'-6FAM.

In data set [3] the target is T1, SUVH5 SRA domain. As to the kind of experiment: ITC; N fixed to 0.5; endothermic; 3-fold higher concentrations; ITC: 40 mM Tris-HCl pH 7.5, 50 mM NaCl, 2 mM b-mercaptoethanol, 25 C; FP: 20 mM Tris-HCl pH 7.5, 50 mM NaCl, 1 mM DTT, 20 C; EMSA: 25 mM Tris-HCl pH 7.5, 5% glycerol, 60 mM NaCl, 10 mM MgCl2, 0.4 mg/mL BSA, 2 mM DTT. To be noted: protein: recombinant; tags: His6-SUMO, cleaved with Ulp1; chain copies: 2; self-complementary, 2 copies of strand.

Data set [4] addresses T1, SUVH5 SRA domain. As to the kind of experiment: ITC; N fixed to 0.5; 3-fold higher concentrations; ITC: 40 mM Tris-HCl pH 7.5, 50 mM NaCl, 2 mM b-mercaptoethanol, 25 C; FP: 20 mM Tris-HCl pH 7.5, 50 mM NaCl, 1 mM DTT, 20 C; EMSA: 25 mM Tris-HCl pH 7.5, 5% glycerol, 60 mM NaCl, 10 mM MgCl2, 0.4 mg/mL BSA, 2 mM DTT. To be noted: protein: recombinant; tags: His6-SUMO, cleaved with Ulp1; chain copies: 2; self-complementary, 2 copies of strand.

The target in data set [5] is T1, SUVH5 SRA domain. Kind of data set: ITC; N = 0.48; ITC: 40 mM Tris-HCl pH 7.5, 50 mM NaCl, 2 mM b-mercaptoethanol, 25 C; FP: 20 mM Tris-HCl pH 7.5, 50 mM NaCl, 1 mM DTT, 20 C; EMSA: 25 mM Tris-HCl pH 7.5, 5% glycerol, 60 mM NaCl, 10 mM MgCl2, 0.4 mg/mL BSA, 2 mM DTT. To be noted: protein: recombinant; tags: His6-SUMO, cleaved with Ulp1; chain copies: 2; self-complementary, 2 copies of strand.

Data set [6] addresses T1, SUVH5 SRA domain. As to the kind of experiment: ITC; ITC: 40 mM Tris-HCl pH 7.5, 50 mM NaCl, 2 mM b-mercaptoethanol, 25 C; FP: 20 mM Tris-HCl pH 7.5, 50 mM NaCl, 1 mM DTT, 20 C; EMSA: 25 mM Tris-HCl pH 7.5, 5% glycerol, 60 mM NaCl, 10 mM MgCl2, 0.4 mg/mL BSA, 2 mM DTT. To be noted: protein: recombinant; tags: His6-SUMO, cleaved with Ulp1; chain copies: 2.

B1: fully-5hmCG 10-mer with 3'-T overhang (crystal) (dsDNA)
DNA 1: ACTACGTAGTT
DNA 2: ACTACGTAGTT
modifications: 5hmC at position 5, both strands
Regarding B1, the binding result with SUVH5 SRA domain [1] is listed as “binds”.

B2: fully-5hmCG duplex (ITC) (dsDNA)
DNA 1: CAGCTCGAGCTG
DNA 2: CAGCTCGAGCTG
modifications: 5hmC at central CG, both strands
In the case of B2, the Kd with SUVH5 SRA domain [2] worked out at 1500 ± 120 nM.

B3: hemi-5mCG 12-mer (dsDNA)
DNA 1: CCATGCGCTGAC
DNA 2: GTCAGCGCATGG
modifications: X = 5mC, one strand
For the molecule B3, the Kd with UHRF1 SRA domain was 350 nM.

B4: fully-5fCG duplex (ITC) (dsDNA)
DNA 1: CAGCTCGAGCTG
DNA 2: CAGCTCGAGCTG
modifications: 5fC at central CG, both strands
With B4, the Kd in the data set with SUVH5 SRA domain [3] was around 125 µM.

B5: fully-5caCG duplex (ITC) (dsDNA)
DNA 1: CAGCTCGAGCTG
DNA 2: CAGCTCGAGCTG
modifications: 5caC at central CG, both strands
As for B5, in the data set with SUVH5 SRA domain [4], the Kd is around 150 µM.

B6: fully-5mCG duplex (ITC) (dsDNA)
DNA 1: CAGCTCGAGCTG
DNA 2: CAGCTCGAGCTG
modifications: 5mC at central CG, both strands
For the molecule B6, the Kd in the data set with SUVH5 SRA domain [5] worked out at 1200 ± 90 nM.

B7: hemi-5hmCG duplex (ITC) (dsDNA)
DNA 1: CCATGCGCTGAC
DNA 2: GTCAGCGCATGG
modifications: 5hmC at central CG, one strand
For the molecule B7, the Kd with SUVH5 SRA domain [6] worked out at 7.6 ± 0.6 µM.
